Patent US20240117043A1 (SHANGHAI JUNSHI BIOSCIENCES, published 2024)
Each block holds one binder with its values, some of them ahead of it.

Assays:
[1] = biological target: T1, recombinant human TIGIT (His Tag) (human, UniProt Q495A1 22-141); test: ELISA, relative binding activity, sample kept at 40 C for 0 weeks
T1 construct: Coated antigen of the ELISA; not shown: His tag
T1 sequence (looked up): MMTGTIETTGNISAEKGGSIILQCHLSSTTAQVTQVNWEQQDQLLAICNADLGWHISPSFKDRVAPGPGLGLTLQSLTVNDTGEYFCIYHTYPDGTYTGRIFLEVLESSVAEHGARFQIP
Experimental: (§1) The antibody samples were exchanged into a pH 5.5 buffer system (20 mM histidine-histidine hydrochloride buffer, 230 mM trehalose) with the concentration of the samples controlled at about 5 mg/mL, and the buffer was aliquoted into vials at 500 μL/vial. The vials were placed in a 40° C. incubator to test stability at 0 W, 2 W and 4 W. Samples were sent for analysis according to Table 2. Stability was assessed by the following parameters: (a) the content of antibody monomers, aggregates or fragments determined by SEC-HPLC (size exclusion chromatography); (b) the molecular weight of the antibody determined by CE-SDS (sodium dodecyl sulfate capillary electrophoresis); and (c) the bioactivity of the antibody determined by an ELISA or reporter gene assay.

[2] = biological target: T2, recombinant human HX1 hCD112R Fc (human, UniProt Q6DKI7 41-171, limits assumed); test: as above
T2 construct: Coated antigen of the ELISA (Suzhou Junmeng); also called human CD112R; not shown: Fc part
T2 sequence (looked up): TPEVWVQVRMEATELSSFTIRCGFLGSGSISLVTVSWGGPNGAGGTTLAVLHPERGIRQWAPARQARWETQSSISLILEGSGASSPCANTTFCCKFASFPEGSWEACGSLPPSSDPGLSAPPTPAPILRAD
Experimental: as §1

[3] = biological target: T1, recombinant human TIGIT (His Tag); test: ELISA, relative binding activity, sample kept at 40 C for 2 weeks
Experimental: as §1

[4] = biological target: T2, recombinant human HX1 hCD112R Fc; test: as above
Experimental: as §1

[5] = biological target: T3, human CD112R-mFc protein (human, UniProt Q6DKI7 41-171, limits assumed); test: flow cytometry, blocking of 1 ug/mL CD112R-mFc binding to CHO hCD112 cells
T3 construct: also called human CD112R protein; not shown: mouse Fc (mFc)
T3 sequence (looked up): T2 sequence (looked up)
Experimental: CHO hCD112 cells (Chinese hamster ovary cells, human CD112 positive) were incubated with different concentrations of the bispecific antibodies JS-1, JS-3, JS-5 and JS-9 and 1 μg/mL human CD112R-mFc protein at 4° C. for 30 min, then washed twice and incubated with a fluorescence-labeled anti-mouse IgG secondary antibody (1:200) in a dark place at 4° C. for 30 min. Finally, the cells were collected using a flow cytometer (BD Canto II), and the fluorescent antibodies bound to the cell surface were detected. Raw data were analyzed using FlowJo to obtain MFI values, antibody dose-dependent binding curves (FIG. 4) were fitted using GraphPad, and IC50 was calculated. The positive controls were hu52 (a recombinant humanized anti-CD112R monoclonal antibody) and JS-Ref (Hengrui) (an anti-TIGIT/CD112R bispecific antibody of Hengrui, expressed and purified according to the sequence of the patent WO2021180205), and the negative control was an anti-KLH-hIgG1 antibody.

[6] = biological target: T2, recombinant human HX1 hCD112R Fc; test: ELISA, plate coated with recombinant human HX1 hCD112R Fc, detection with HRP anti-human IgG4 Fc; unit taken from the concentration axis [3a]
Experimental: 2. Procedures [0255] a. A 96-well plate was coated with 1.0 μg/mL recombinant human HX1 hCD112R Fc (Suzhou Junmeng) as the antigen at 100 μL/well and incubated at 37° C. for 1.5 h. [0256] b. The plate was washed 4 times with 300 μL/well 1×PBST, and 2% BSA was added at 200 μL/well. The plate was blocked at 37° C. for 1.5 h. [0257] c. The plate was washed 4 times with 300 μL/well 1×PBST, and serial dilutions of the bispecific antibodies JS-1,3,5,9 and a negative control: antibody (anti-KLH hIgG4) (initial concentration 3.0 μg/mL, 3-fold serially diluted to 12 concentration points, 100 μL/well) were added. The plate was incubated at 37° C. for 1 h. [0258] d. The plate was washed 4 times with 300 μL/well 1×PBST. [0259] e. 5000-fold diluted horseradish peroxidase (HRP)-conjugated mouse anti-human IgG4 Fc antibody (Southern Biotech, 9200-05) was added at 100 μL/well, and the plate was incubated at 37° C. for 1 h. [0260] f. The plate was washed 4 times with 300 μL/well 1×PBST. [0261] g. 0.1 mg/mL TMB was added at 100 μL/well, and after the plate was incubated at 37° C. for 15 min, a 2 M solution of hydrochloric acid was added at 100 μL/well to stop the reactions. […] The absorbance was measured at 450 nm/620 nm on a microplate reader, and data were analyzed using Graphpad Prism7.

[7] = biological target: T1, recombinant human TIGIT (His Tag); test: ELISA, plate coated with recombinant human TIGIT (His Tag), detection with HRP anti-human IgG4 Fc; unit taken from the concentration axis [2a]
Experimental: 2. Procedures [0241] a. A 96-well plate was coated with 1.5 μg/mL recombinant human TIGIT (His Tag) (Suzhou Junmeng) as the antigen at 100 μL/well and incubated at 37° C. for 1.5 h. [0242] b. The plate was washed 4 times with 300 μL/well 1×PBST, and 2% BSA was added at 200 μL/well. The plate was blocked at 37° C. for 1.5 h. [0243] c. The plate was washed 4 times with 300 μL/well 1×PBST, and serial dilutions of the bispecific antibodies JS-1,3,5,9 and a negative control: antibody (anti-KLH hIgG4) (initial concentration 1.0 μg/mL, 3-fold serially diluted to 12 concentration points, 100 μL/well) were added. The plate was incubated at 37° C. for 1 h. [0244] d. The plate was washed 4 times with 300 μL/well 1×PBST. [0245] e. 5000-fold diluted horseradish peroxidase (HRP)-conjugated mouse anti-human IgG4 Fc antibody (Southern Biotech, 9200-05) was added at 100 μL/well, and the plate was incubated at 37° C. for 1 h. […] The plate was washed 4 times with 300 μL/well 1×PBST. [0247] g. 0.1 mg/mL TMB was added at 100 μL/well, and after the plate was incubated at 37° C. for 15 min, a 2 M solution of hydrochloric acid was added at 100 μL/well to stop the reactions. [0248] h. The absorbance was measured at 450 nm/620 nm on a microplate reader, and data were analyzed using Graphpad Prism7.

TIGIT binding activity Elisa (%) [1]: 100%
CD112R binding activity Elisa (%) [2]: 101%
TIGIT binding activity Elisa (%) [3]: 75%
CD112R binding activity Elisa (%) [4]: 87%
IC50 [5]: 0.915 nM
EC50 [6]: 4.03 ng/mL
EC50 [7]: 0.0858 µg/mL
B1: bispecific antibody JS-1 (IgG4) (bispecific antibody)
heavy: QVQLVQSGAEVKKPGASVKVSCKTSGYAFTEYTMHWVRQAPGKGLEWMGGINPNTGGTTYNQKFQGRVTLTVDKSSSTAYMELSSLRSEDTVVYYCAKLLRLMYYFDYWGQGTLVTVSSASTKGPSVFPLAPCSRSTSESTAALGCLVKDYFPEPVTVSWNSGALTSGVHTFPAVLQSSGLYSLSSVVTVPSSSLGTKTYTCNVDHKPSNTKVDKRVESKYGPPCPPCPAPEFLGGPSVFLFPPKPKDTLMISRTPEVTCVVVDVSQEDPEVQFNWYVDGVEVHNAKTKPREEQFNSTYRVVSVLTVLHQDWLNGKEYKCKVSNKGLPSSIEKTISKAKGQPREPQVYTLPPCQEEMTKNQVSLWCLVKGFYPSDIAVEWESNGQPENNYKTTPPVLDSDGSFFLYSRLTVDKSRWQEGNVFSCSVMHEALHNHYTQKSLSLSLGK
light: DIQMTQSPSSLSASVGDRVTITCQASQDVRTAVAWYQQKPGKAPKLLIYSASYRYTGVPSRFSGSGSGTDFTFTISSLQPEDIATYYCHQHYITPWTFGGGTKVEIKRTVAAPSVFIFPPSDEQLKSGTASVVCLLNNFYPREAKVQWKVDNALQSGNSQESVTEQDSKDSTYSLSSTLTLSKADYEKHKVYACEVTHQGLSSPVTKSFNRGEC
chain: DIVMTQSPDSLAVSLGERATINCKASQSVSNDVAWYQQKPGQPPKLLIYYVSHRFTGVPDRFSGSGSGTDFTLTISSLQAEDVAVYFCHQAYRSPWTFGCGTKLEIKGGGGSGGGGSGGGGSGGGGSEVQLVESGGGLVKPGGSLRLSCAASGFTFSSYHMSWVRQAPGKCLELVSAINSNGINTYYLDTVKGRFTISRDNAKNSLYLQMNSLRAEDTAVYYCARHEDYYGFAMDYWGQGTLVTVSSGGGGSGGGGSESKYGPPCPPCPAPEFLGGPSVFLFPPKPKDTLMISRTPEVTCVVVDVSQEDPEVQFNWYVDGVEVHNAKTKPREEQFNSTYRVVSVLTVLHQDWLNGKEYKCKVSNKGLPSSIEKTISKAKGQPREPQVCTLPPSQEEMTKNQVSLSCAVKGFYPSDIAVEWESNGQPENNYKTTPPVLDSDGSFFLVSRLTVDKSRWQEGNVFSCSVMHEALHNRFTQKSLSLSLGK
notes: Three-chain knob-into-hole format: anti-TIGIT Fab arm and anti-CD112R scFv arm, IgG4 Fc

TIGIT binding activity Elisa (%) [1]: 111%
CD112R binding activity Elisa (%) [2]: 102%
TIGIT binding activity Elisa (%) [3]: 88%
CD112R binding activity Elisa (%) [4]: 98%
IC50 [5]: 0.696 nM
EC50 [6]: 4.02 ng/mL
EC50 [7]: 0.106 µg/mL
B2: bispecific antibody JS-3 (IgG4) (bispecific antibody)
chain 1: not shown
chain 2: DIVMTQSPDSLAVSLGERATINCKASQSVSNDVAWYQQKPGQPPKLLIYYVSHRFTGVPDRFSGSGSGTDFTLTISSLQAEDVAVYFCHQAYRSPWTFGQGTKLEIKRTVAAPSVFIFPPSDEQLKSGTASVVCLLNNFYPREAKVQWKVDNALQSGNSQESVTEQDSKDSTYSLSSTLTLSKADYEKHKVYACEVTHQGLSSPVTKSFNRGECSGGGSGGGSEGGGSEGGGSEGGGSEGGGSGGGSGEVQLVESGGGLVKPGGSLRLSCAASGFTFSSYHMSWVRQAPGKGLELVSAINSNGINTYYLDTVKGRFTISRDNAKNSLYLQMNSLRAEDTAVYYCARHEDYYGFAMDYWGQGTLVTVSSASTKGPSVFPLAPCSRSTSESTAALGCLVKDYFPEPVTVSWNSGALTSGVHTFPAVLQSSGLYSLSSVVTVPSSSLGTKTYTCNVDHKPSNTKVDKRVESKYGPPCPPCPAPEFLGGPSVFLFPPKPKDTLMISRTPEVTCVVVDVSQEDPEVQFNWYVDGVEVHNAKTKPREEQFNSTYRVVSVLTVLHQDWLNGKEYKCKVSNKGLPSSIEKTISKAKGQPREPQVCTLPPSQEEMTKNQVSLSCAVKGFYPSDIAVEWESNGQPENNYKTTPPVLDSDGSFFLVSRLTVDKSRWQEGNVFSCSVMHEALHNRFTQKSLSLSLGK
notes: Two-chain scFab/scFab knob-into-hole format, IgG4 Fc
